{"source": "paper PMC3733360", "about": "(Structure (London, England : 1993), 2008)", "binders": {"B1": {"name": "Sso1pHT E185C labeled with Cy3 (domain or fragment, yeast, UniProt P32867 185-290, looked up)", "chain": "CAKTALAEVQARHQELLKLEKSMAELTQLFNDMEELVIEQQENVDVIDKNVEDAQLDVEQGVGHTDKAVKSARKARKNKIRCWLIVFAIIVVVVVVVVVPAVVKTR", "modifications": "Cy3 maleimide on cysteine 185"}, "B2": {"name": "full-length Snc2p (amino acids 1-115) P13C labeled with Cy5 (natural protein, yeast, UniProt P33328 1-115, looked up)", "chain": "MSSSVPYDPYVPCEESNSGANPNSQNKTAALRQEIDDTVGIMRDNINKVAERGERLTSIEDKADNLAISAQGFKRGANRVRKQMWWKDLKMRMCLFLVVIILLVVIIVPIVVHFS", "modifications": "Cy5 maleimide on cysteine 13"}, "B3": {"name": "Sec9c D599C, spin labeled with MTSSL (SN2) (domain or fragment, yeast, UniProt P40357 401-651, looked up)", "chain": "QRGYKTFEEIQKEEEARQQQEEDEAVDEIKQEIKFTKQSSVASTRNTLKMAQDAERAGMNTLGMLGHQSEQLNNVEGNLDLMKVQNKVADEKVAELKKLNRSILAVHVSNPFNSKRRRREREEQLKNRKIEEKLMREQTSQQLSQSTQRIEGAMNANNNISEVRERYQRKNVLEKAKRYQFENDEEDDEMELEIDRNLCQIQQVSNRLKKMALTTGKELDSQQKRLNNIEESTDDLDINLHMNTNRLAGIR", "modifications": "MTSSL nitroxide spin label on cysteine 599"}, "B4": {"name": "Sec9c D620C, spin labeled with MTSSL (SN2) (domain or fragment, yeast, UniProt P40357 401-651, looked up)", "chain": "B3 chain with C199D, D220C", "modifications": "MTSSL nitroxide spin label on cysteine 620"}, "B5": {"name": "Sec9c H641C, spin labeled with MTSSL (SN2) (domain or fragment, yeast, UniProt P40357 401-651, looked up)", "chain": "B3 chain with C199D, H241C", "modifications": "MTSSL nitroxide spin label on cysteine 641"}, "B6": {"name": "Sec9c N606C, spin labeled with MTSSL (SN2) (domain or fragment, yeast, UniProt P40357 401-651, looked up)", "chain": "B3 chain with C199D, N206C", "modifications": "MTSSL nitroxide spin label on cysteine 606"}, "B7": {"name": "Sec9c N627C, spin labeled with MTSSL (SN2) (domain or fragment, yeast, UniProt P40357 401-651, looked up)", "chain": "B3 chain with C199D, N227C", "modifications": "MTSSL nitroxide spin label on cysteine 627"}}, "note": "Numbering of substitutions follows the chain as printed. Names may count otherwise.", "data": [{"molecular_target": "T1, Sec9c (amino acids 401-651 of Sec9), wild type (yeast, UniProt P40357 401-651)", "T1 sequence (looked up)": "B3 chain with C199D", "test": "FRET or BRET", "values": [{"binder": "B1", "binding result": "binds"}, {"binder": "B2", "binding result": "binds"}]}, {"molecular_target": "T2, Snc2pS (soluble Snc2p, amino acids 1-93), wild type (yeast, UniProt P33328 1-93)", "T2 sequence (looked up)": "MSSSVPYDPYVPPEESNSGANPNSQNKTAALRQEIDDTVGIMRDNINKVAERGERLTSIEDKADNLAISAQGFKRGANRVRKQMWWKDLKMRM", "test": "EPR line shape", "units": {"percent of SN2 in an unstructured conformation (not in the complex)": "%"}, "values": [{"binder": "B3", "percent of SN2 in an unstructured conformation (not in the complex)": "~60"}, {"binder": "B4", "percent of SN2 in an unstructured conformation (not in the complex)": "~60"}, {"binder": "B5", "percent of SN2 in an unstructured conformation (not in the complex)": "~60"}, {"binder": "B6", "percent of SN2 in an unstructured conformation (not in the complex)": "~60"}, {"binder": "B7", "percent of SN2 in an unstructured conformation (not in the complex)": "~60"}]}, {"molecular_target": "T3, Sso1pHT (amino acids 185-290 of Sso1p lacking the regulatory Habc domain), wild type (yeast, UniProt P32867 185-290)", "T3 sequence (looked up)": "B1 chain with C1E", "test": "EPR line shape", "units": {"percent of SN2 in an unstructured conformation (not in the complex)": "%"}, "values": [{"binder": "B3", "percent of SN2 in an unstructured conformation (not in the complex)": "~60"}, {"binder": "B4", "percent of SN2 in an unstructured conformation (not in the complex)": "~60"}, {"binder": "B5", "percent of SN2 in an unstructured conformation (not in the complex)": "~60"}, {"binder": "B6", "percent of SN2 in an unstructured conformation (not in the complex)": "~60"}, {"binder": "B7", "percent of SN2 in an unstructured conformation (not in the complex)": "~60"}]}]}
